The results in this text go back to patent publication EP4491631A1 (Anaveon AG, dated 2025).

Experiment [1] concerns the target T1, IL-2R CD122-CD132 on Jurkat-PD1+ CD122+ cells (UniProt P14784 27-551; P31785 23-369).
T1 sequence (looked up) 1: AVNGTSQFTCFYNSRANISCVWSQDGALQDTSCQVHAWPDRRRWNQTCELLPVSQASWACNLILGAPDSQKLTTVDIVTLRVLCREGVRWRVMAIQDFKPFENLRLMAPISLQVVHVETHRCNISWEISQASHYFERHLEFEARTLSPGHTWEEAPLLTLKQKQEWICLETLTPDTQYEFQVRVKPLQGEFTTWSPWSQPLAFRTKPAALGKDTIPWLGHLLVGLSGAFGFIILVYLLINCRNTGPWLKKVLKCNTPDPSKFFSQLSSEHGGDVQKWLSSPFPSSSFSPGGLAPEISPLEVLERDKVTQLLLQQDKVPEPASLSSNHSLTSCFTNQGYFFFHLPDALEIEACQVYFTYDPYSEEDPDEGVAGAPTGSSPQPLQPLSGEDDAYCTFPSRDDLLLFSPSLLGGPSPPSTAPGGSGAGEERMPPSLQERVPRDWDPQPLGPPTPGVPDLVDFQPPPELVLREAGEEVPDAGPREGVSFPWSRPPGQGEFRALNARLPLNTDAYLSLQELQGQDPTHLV
T1 sequence (looked up) 2: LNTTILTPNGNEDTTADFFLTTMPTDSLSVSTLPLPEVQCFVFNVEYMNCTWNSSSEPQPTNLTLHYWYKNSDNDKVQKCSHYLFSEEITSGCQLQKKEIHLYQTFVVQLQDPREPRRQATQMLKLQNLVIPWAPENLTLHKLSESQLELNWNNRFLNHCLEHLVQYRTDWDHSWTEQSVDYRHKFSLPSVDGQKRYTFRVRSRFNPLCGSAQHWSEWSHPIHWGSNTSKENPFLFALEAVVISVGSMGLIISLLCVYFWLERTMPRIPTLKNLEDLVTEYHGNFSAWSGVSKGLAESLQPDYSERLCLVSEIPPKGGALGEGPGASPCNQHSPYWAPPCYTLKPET
In words: cell-based or functional assay.

In experiment [2] the target is T2, cynoPD-1 His (AcroBiosystems PD1-C5223) (cynomolgus monkey, UniProt B0LAJ3 25-170).
T2 construct: also called cPD-1
T2 sequence (B0LAJ3 entry or part of it limits assumed, form in doubt): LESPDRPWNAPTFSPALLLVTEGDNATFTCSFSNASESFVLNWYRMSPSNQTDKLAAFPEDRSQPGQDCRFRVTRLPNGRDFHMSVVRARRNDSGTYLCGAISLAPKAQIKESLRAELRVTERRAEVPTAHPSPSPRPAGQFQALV
In words: SPR, antibody captured.

B1: JLI141 (bispecific antibody, human IgG1, lambda, L234A L235A)
chain 1: EVQLLESGGGLVQPGGSLRLSCAASGFTFSINAMTWVRQAPGKGLEWVSTISGSGFSTYYADSLKGRFTISRDNSKNTLYLQMNSLRAEDTAVYYCAKEVYGDYWGQGTLVTVSSASTKGPSVFPLAPSSKSTSGGTAALGCLVKDYFPEPVTVSWNSGALTSGVHTFPAVLQSSGLYSLSSVVTVPSSSLGTQTYICNVNHKPSNTKVDKRVEPKSCDKTHTCPPCPAPEAAGGPSVFLFPPKPKDTLMISRTPEVTCVVVDVSHEDPEVKFNWYVDGVEVHNAKTKPREEQYNSTYRVVSVLTVLHQDWLNGKEYKCKVSNKALAAPIEKTISKAKGQPREPQVYTLPPSREEMTKNQVSLTCLVKGFYPSDIAVEWESNGQPENNYKTTPPVLDSDGSFFLTSKLTVDKSRWQQGNVFSCSVMHEALHNHYTQKSLSLSPGK
chain 2: not shown
chain 3: AIRLTQSPSSFSASTGDRVTITCKASQSVDYGGGNFHLRPRDLISNINVIVLELKGSETTFMCEYADETATIVEFLNRWITFSQSIISTLTPTSSSTKKTQLQLEHLLLDLQMILNGINNYKNPKLTRMLTFKFYMPKKATELKHLQCLEEELKPLEEVLNLAQSKGGGGDSYMNWYQQKPGKAPKLLIYAASNLESGVPSRFSGSGSGTDFTLTISSLQSEDFATYYCQQSNEDPYTFGGGTKVEIKGGGGSGGGGSGGGGSEVQLVQSGAEVKKPGESLKISCKGSGYAFTNYLIEWVRQMPGKGLEWMGVINPGSGGTNYNEKFKGQVTISADKSISTAYLQWSSLKASDTAMYYCARWRGEGYYAYFDVWGQGTTVTVSSGGGGSGGGGSEVQLLESGGGLVQPGGSLRLSCAASGFTFSINAMTWVRQAPGKGLEWVSTISGSGFSTYYADSLKGRFTISRDNSKNTLYLQMNSLRAEDTAVYYCAKEVYGDYWGQGTLVTVSSASTKGPSVFPLAPSSKSTSGGTAALGCLVKDYFPEPVTVSWNSGALTSGVHTFPAVLQSSGLYSLSSVVTVPSSSLGTQTYICNVNHKPSNTKVDKRVEPKSCDKTHTCPPCPAPEAAGGPSVFLFPPKPKDTLMISRTPEVTCVVVDVSHEDPEVKFNWYVDGVEVHNAKTKPREEQYNSTYRVVSVLTVLHQDWLNGKEYKCKVSNKALAAPIEKTISKAKGQPREPQVYTLPPSREEMTKNQVSLYCLVKGFYPSDIAVEWESNGQPENNYKTTPPVLDSDGSFFLYSKLTVDKSRWQQGNVFSCSVMHEALHNHYTQKSLSLSPGK
Regarding B1, in experiment [1], the “EC50 value for pSTAT5 induction” value was 0.2 nM.

B2: GQM289 (bispecific antibody, human IgG1, kappa, lambda, L234A L235A)
chain 1: EVQLLESGGGLVQPGGSLRLSCAASGFTFSINAMTWVRQAPGKGLEWVSTISGSGFSTYYADSLKGRFTISRDNSKNTLYLQMNSLRAEDTAVYYCAKEVYGDYWGQGTLVTVSSASTKGPSVFPLAPSSKSTSGGTAALGCLVKDYFPEPVTVSWNSGALTSGVHTFPAVLQSSGLYSLSSVVTVPSSSLGTQTYICNVNHKPSNTKVDKRVEPKSCDKTHTCPPCPAPEAAGGPSVFLFPPKPKDTLMISRTPEVTCVVVDVSHEDPEVKFNWYVDGVEVHNAKTKPREEQYNSTYRVVSVLTVLHQDWLNGKEYKCKVSNKALAAPIEKTISKAKGQPREPQVYTLPPSREEMTKNQVSLTCLVKGFYPSDIAVEWESNGQPENNYKTTPPVLDSDGSFFLTSKLTVDKSRWQQGNVFSCSVMHEALHNHYTQKSLSLSPGK
chain 2: not shown
chain 3: EVQLVQSGAEVKKPGESLKISCKGSGYAFTNYLIEWVRQMPGKGLEWMGVINPGSGGTNYNEKFKGQVTISADKSISTAYLQWSSLKASDTAMYYCARWRGEGYYAYFDVWGQGTTVTVSSASTKGPSVFPLAPSSKSTSGGTAALGCLVKDYFPEPVTVSWNSGALTSGVHTFPAVLQSSGLYSLSSVVTVPSSSLGTQTYICNVNHKPSNTKVDKRVEPKSCDKTHTCPPCPAPEAAGGPSVFLFPPKPKDTLMISRTPEVTCVVVDVSHEDPEVKFNWYVDGVEVHNAKTKPREEQYNSTYRVVSVLTVLHQDWLNGKEYKCKVSNKALAAPIEKTISKAKGQPREPQVYTLPPSREEMTKNQVSLYCLVKGFYPSDIAVEWESNGQPENNYKTTPPVLDSDGSFFLYSKLTVDKSRWQQGNVFSCSVMHEALHNHYTQKSLSLSPGK
chain 4: not shown
Consider B2, for which the “EC50 value for pSTAT5 induction” value in experiment [1] was 0.22 nM.

B3: LTJ498 (bispecific antibody, human IgG1, lambda, L234A L235A)
chain 1: EVQLLESGGGLVQPGGSLRLSCAASGFTFSINAMTWVRQAPGKGLEWVSTISGSGFSTYYADSLKGRFTISRDNSKNTLYLQMNSLRAEDTAVYYCAKEVYGDYWGQGTLVTVSSASTKGPSVFPLAPSSKSTSGGTAALGCLVKDYFPEPVTVSWNSGALTSGVHTFPAVLQSSGLYSLSSVVTVPSSSLGTQTYICNVNHKPSNTKVDKRVEPKSCDKTHTCPPCPAPEAAGGPSVFLFPPKPKDTLMISRTPEVTCVVVDVSHEDPEVKFNWYVDGVEVHNAKTKPREEQYNSTYRVVSVLTVLHQDWLNGKEYKCKVSNKALAAPIEKTISKAKGQPREPQVYTLPPSREEMTKNQVSLTCLVKGFYPSDIAVEWESNGQPENNYKTTPPVLDSDGSFFLTSKLTVDKSRWQQGNVFSCSVMHEALHNHYTQKSLSLSPGK
chain 2: not shown
chain 3: AIRLTQSPSSFSASTGDRVTITCKASQSVDYGGGNFHLRPRDLISNINVIVLELKGSETTFMCEYADETATIVEFLNRWITFSQSIISTLTPTSSSTKKTQLQLEHLLLDLQMILNGINNYKNPKLTRMLTFKFYMPKKATELKHLQCLEEELKPLEEVLNLAQSKGGGGDSYMNWYQQKPGKAPKLLIYAASNLESGVPSRFSGSGSGTDFTLTISSLQSEDFATYYCQQSNEDPYTFGGGTKVEIKGGGGSGGGGSGGGGSEVQLVQSGAEVKKPGESLKISCKGSGYAFTNYLIEWVRQMPGKGLEWMGVINPGSGGTNYNEKFKGQVTISADKSISTAYLQWSSLKASDTAMYYCARWRGEGYYAYFDVWGQGTTVTVSSGGGGSGGGGSEVQLLESGGGLVQPGGSLRLSCAASGFTFSINAMTWVRQAPGKGLEWVSTISGSGFSTYYADSLKGRFTISRDNSKNTLYLQMNSLRAEDTAVYYCAKEVYGDYWGQGTLVTVSSASTKGPSVFPLAPSSKSTSGGTAALGCLVKDYFPEPVTVSWNSGALTSGVHTFPAVLQSSGLYSLSSVVTVPSSSLGTQTYICNVNHKPSNTKVDKRVEPKSCDKTHTCPPCPAPEAAGGPSVFLFPPKPKDTLMISRTPEVTCVVVDVSHEDPEVKFNWYVDGVEVHNAKTKPREEQYNSTYRVVSVLTVLHQDWLNGKEYKCKVSNKALAAPIEKTISKAKGQPREPQVYTLPPSREEMTKNQVSLYCLVKGFYPSDIAVEWESNGQPENNYKTTPPVLDSDGSFFLYSKLTVDKSRWQQGNVFSCSVMHEALHNHYTQKSLSLSPGK
Consider B3, for which the “EC50 value for pSTAT5 induction” value in experiment [1] came out at 0.24 nM.

B4: XWY176 (bispecific antibody, human IgG1, kappa, lambda, L234A L235A)
chain 1: EVQLLESGGGLVQPGGSLRLSCAASGFTFSINAMTWVRQAPGKGLEWVSTISGSGFSTYYADSLKGRFTISRDNSKNTLYLQMNSLRAEDTAVYYCAKEVYGDYWGQGTLVTVSSASTKGPSVFPLAPSSKSTSGGTAALGCLVKDYFPEPVTVSWNSGALTSGVHTFPAVLQSSGLYSLSSVVTVPSSSLGTQTYICNVNHKPSNTKVDKRVEPKSCDKTHTCPPCPAPEAAGGPSVFLFPPKPKDTLMISRTPEVTCVVVDVSHEDPEVKFNWYVDGVEVHNAKTKPREEQYNSTYRVVSVLTVLHQDWLNGKEYKCKVSNKALAAPIEKTISKAKGQPREPQVYTLPPSREEMTKNQVSLTCLVKGFYPSDIAVEWESNGQPENNYKTTPPVLDSDGSFFLTSKLTVDKSRWQQGNVFSCSVMHEALHNHYTQKSLSLSPGK
chain 2: not shown
chain 3: EVQLVQSGAEVKKPGESLKISCKGSGYAFTNYLIEWVRQMPGKGLEWMGVINPGSGGTNYNEKFKGQVTISADKSISTAYLQWSSLKASDTAMYYCARWRGEGYYAYFDVWGQGTTVTVSSASTKGPSVFPLAPSSKSTSGGTAALGCLVKDYFPEPVTVSWNSGALTSGVHTFPAVLQSSGLYSLSSVVTVPSSSLGTQTYICNVNHKPSNTKVDKRVEPKSCDKTHTCPPCPAPEAAGGPSVFLFPPKPKDTLMISRTPEVTCVVVDVSHEDPEVKFNWYVDGVEVHNAKTKPREEQYNSTYRVVSVLTVLHQDWLNGKEYKCKVSNKALAAPIEKTISKAKGQPREPQVYTLPPSREEMTKNQVSLYCLVKGFYPSDIAVEWESNGQPENNYKTTPPVLDSDGSFFLYSKLTVDKSRWQQGNVFSCSVMHEALHNHYTQKSLSLSPGK
chain 4: not shown
Consider B4, for which the “EC50 value for pSTAT5 induction” value in experiment [1] came out at 0.27 nM.

B5: z5-XVT458 (antibody, human IgG1, kappa, V domains shown)
VH: QVQLVQSGAEVKKPGASVKVSCKASGYTFTNFYIHWVRQAPGQGLEWMGSIYPNYGDTAYNQKFKDRATMTTDKSTSTAYMELRSLRSDDTAVYYCARGYSYAMDYWGQGTTVTVSS
VL: DIQMTQSPSSVSASVGDRVTITCSASQGISGDLNWYQQKPGKAPKLLIYHTSSLHSGVPSRFSGSGSGTDFTLTISSLQPEDFATYYCQYYSKDLLTFGGGTKLEIKR
notes: full hIgG1 format
For the molecule B5, the dissociation rate constant (koff) in experiment [2] came out at 0.00338 s⁻¹.
